Assay results from patent US20040266664.

Experiments:
Ac-ALLL-epoxide = system: T1, Ac-ALLL-epoxide
T1 sequence: XLLX

Ac-AVL-Ex = system: T2, Ac-AVL-Ex
T2 sequence: AVL

Ac-GGPFL-Ex = system: T3, Ac-GGPFL-Ex
T3 sequence: XGPFX

Ac-GPFL-Ex = system: T4, Ac-GPFL-Ex
T4 sequence: XPFX

Ac-IVL-Ex = system: T5, Ac-IVL-Ex
T5 sequence: IVL

Ac-LALL-epoxide = system: T6, Ac-LALL-epoxide
T6 sequence: XALX

Ac-LFLL-epoxide = system: T7, Ac-LFLL-epoxide
T7 sequence: XFLX

Ac-LLAL-epoxide = system: T8, Ac-LLAL-epoxide
T8 sequence: XLAX

Ac-LLFL-epoxide = system: T9, Ac-LLFL-epoxide
T9 sequence: XLFX

Ac-NorLPFL-Ex = system: T10, Ac-NorLPFL-Ex
T10 sequence: XPFX

Ac-PFL-Ex = system: T11, Ac-PFL-Ex
T11 sequence: PFL

Ac-PPFL-Ex = system: T12, Ac-PPFL-Ex
T12 sequence: XPFX

Benzoylbenzoic-PFL-Ex = system: T13, Benzoylbenzoic-PFL-Ex
T13 sequence: PFL

Eponemycin = system: T14, Eponemycin
T14 sequence: SL

Isooctanioc-PFL-Ex = system: T15, Isooctanioc-PFL-Ex
T15 sequence: PFL

[1] = system: T16, N-acetyl-piperidinecarbonyl-PFL-Ex
T16 sequence: PFL

[2] = system: T17, N-dimethylaminobenzoyl-PFL-EX
T17 sequence: PFL

Pyrazinecarbonyl-PFL-Ex = system: T18, Pyrazinecarbonyl-PFL-Ex
T18 sequence: PFL

compound 16 = system: T19, compound 16
T19 sequence: XLFX

compound 18 = system: T20, compound 18
T20 sequence: XLFX

dileucine α′,β′-epoxide = system: T21, dileucine α′,β′-epoxide
T21 sequence: LL

[3] = system: T22, monoleucine α′,β′-epoxide
T22 sequence: L

[4] = system: T23, tetraleucine α′,β′-epoxide
T23 sequence: LLLL

[5] = system: T24, tetrapeptide epoxide with P2 1-naphthyl, other side chains leucine
T24 sequence: LLXL

[6] = system: T25, tetrapeptide epoxide with P3 1-naphthyl, other side chains leucine
T25 sequence: LXLL

[7] = system: T26, tetrapeptide epoxide with P4 1-naphthyl, other side chains leucine
T26 sequence: XLLL

[8] = system: T27, tetrapeptide epoxide with P4 methylphenyl, other side chains leucine
T27 sequence: XLLL

[9] = system: T28, tetrapeptide epoxide with P4 p-benzoylphenyl, other side chains leucine
T28 sequence: XLLL

[10] = system: T29, tetrapeptide epoxide with P4 phenyl, other side chains leucine
T29 sequence: FLLL

trileucine α′,β′-epoxide = system: T30, trileucine α′,β′-epoxide
T30 sequence: LLL

purified bovine erythrocyte 20S proteasome
kobs/[I], PGPH activity (Z-LLE-AMC) (Ac-ALLL-epoxide): 220 M⁻¹ s⁻¹
kobs/[I], chymotrypsin-like activity (Suc-LLVY-AMC) (Ac-ALLL-epoxide): 5300 M⁻¹ s⁻¹
kobs/[I], tryptic-like activity (Boc-LRR-AMC) (Ac-ALLL-epoxide): 3.8 M⁻¹ s⁻¹
kobs/[I], PGPH activity (Ac-AVL-Ex): 12.7 M⁻¹ s⁻¹
kobs/[I], chymotrypsin-like activity (Ac-AVL-Ex): 10.8 M⁻¹ s⁻¹
kobs/[I], trypsin-like activity (Ac-AVL-Ex): 1.8 M⁻¹ s⁻¹
kobs/[I], PGPH activity (Ac-GGPFL-Ex): 170 M⁻¹ s⁻¹
kobs/[I], chymotrypsin-like activity (Ac-GGPFL-Ex): 170 M⁻¹ s⁻¹
kobs/[I], trypsin-like activity (Ac-GGPFL-Ex): 1.3 M⁻¹ s⁻¹
kobs/[I], PGPH activity (Ac-GPFL-Ex): 190 M⁻¹ s⁻¹
kobs/[I], chymotrypsin-like activity (Ac-GPFL-Ex): 5 M⁻¹ s⁻¹
kobs/[I], trypsin-like activity (Ac-GPFL-Ex): NI
kobs/[I], PGPH activity (Ac-IVL-Ex): 14.6 M⁻¹ s⁻¹
kobs/[I], chymotrypsin-like activity (Ac-IVL-Ex): 5 M⁻¹ s⁻¹
kobs/[I], trypsin-like activity (Ac-IVL-Ex): 6.7 M⁻¹ s⁻¹
kobs/[I], PGPH activity (Z-LLE-AMC) (Ac-LALL-epoxide): 130 M⁻¹ s⁻¹
kobs/[I], chymotrypsin-like activity (Suc-LLVY-AMC) (Ac-LALL-epoxide): 1300 M⁻¹ s⁻¹
kobs/[I], tryptic-like activity (Boc-LRR-AMC) (Ac-LALL-epoxide): 2 M⁻¹ s⁻¹
kobs/[I], PGPH activity (Z-LLE-AMC) (Ac-LFLL-epoxide): not measurable
kobs/[I], chymotrypsin-like activity (Suc-LLVY-AMC) (Ac-LFLL-epoxide): 8500 M⁻¹ s⁻¹
kobs/[I], tryptic-like activity (Boc-LRR-AMC) (Ac-LFLL-epoxide): not measurable
kobs/[I], PGPH activity (Z-LLE-AMC) (Ac-LLAL-epoxide): 20 M⁻¹ s⁻¹
kobs/[I], chymotrypsin-like activity (Suc-LLVY-AMC) (Ac-LLAL-epoxide): 16000 M⁻¹ s⁻¹
kobs/[I], tryptic-like activity (Boc-LRR-AMC) (Ac-LLAL-epoxide): 4.1 M⁻¹ s⁻¹
kobs/[I], PGPH activity (Z-LLE-AMC) (Ac-LLFL-epoxide): not measurable
kobs/[I], chymotrypsin-like activity (Suc-LLVY-AMC) (Ac-LLFL-epoxide): 54000 M⁻¹ s⁻¹
kobs/[I], tryptic-like activity (Boc-LRR-AMC) (Ac-LLFL-epoxide): not measurable
kobs/[I], PGPH activity (Ac-NorLPFL-Ex): 115 M⁻¹ s⁻¹
kobs/[I], chymotrypsin-like activity (Ac-NorLPFL-Ex): 1.9 M⁻¹ s⁻¹
kobs/[I], trypsin-like activity (Ac-NorLPFL-Ex): NI
kobs/[I], PGPH activity (Ac-PFL-Ex): 32 M⁻¹ s⁻¹
kobs/[I], chymotrypsin-like activity (Ac-PFL-Ex): 42 M⁻¹ s⁻¹
kobs/[I], trypsin-like activity (Ac-PFL-Ex): NI
kobs/[I], PGPH activity (Ac-PPFL-Ex): 10.6 M⁻¹ s⁻¹
kobs/[I], chymotrypsin-like activity (Ac-PPFL-Ex): 6.4 M⁻¹ s⁻¹
kobs/[I], trypsin-like activity (Ac-PPFL-Ex): NI
kobs/[I], PGPH activity (Benzoylbenzoic-PFL-Ex): 140 M⁻¹ s⁻¹
kobs/[I], chymotrypsin-like activity (Benzoylbenzoic-PFL-Ex): 8.7 M⁻¹ s⁻¹
kobs/[I], trypsin-like activity (Benzoylbenzoic-PFL-Ex): NI
kobs/[I], PGPH activity (Eponemycin): 175 M⁻¹ s⁻¹
kobs/[I], chymotrypsin-like activity (Eponemycin): 58 M⁻¹ s⁻¹
kobs/[I], trypsin-like activity (Eponemycin): 17 M⁻¹ s⁻¹
kobs/[I], PGPH activity (Isooctanioc-PFL-Ex): 194 M⁻¹ s⁻¹
kobs/[I], chymotrypsin-like activity (Isooctanioc-PFL-Ex): 190 M⁻¹ s⁻¹
kobs/[I], trypsin-like activity (Isooctanioc-PFL-Ex): NI
kobs/[I], PGPH activity [1]: 45.3 M⁻¹ s⁻¹
kobs/[I], chymotrypsin-like activity [1]: 31.2 M⁻¹ s⁻¹
kobs/[I], trypsin-like activity [1]: NI
kobs/[I], PGPH activity [2]: 150 M⁻¹ s⁻¹
kobs/[I], chymotrypsin-like activity [2]: 220 M⁻¹ s⁻¹
kobs/[I], trypsin-like activity [2]: NI
kassoc = kobs/[I], PGPH activity (NLVS): 6.4 M⁻¹ s⁻¹
kassoc = kobs/[I], chymotrypsin-like activity (NLVS): 6790 M⁻¹ s⁻¹
kassoc = kobs/[I], trypsin-like activity (NLVS): 5.3 M⁻¹ s⁻¹
kobs/[I], PGPH activity (Pyrazinecarbonyl-PFL-Ex): 23 M⁻¹ s⁻¹
kobs/[I], chymotrypsin-like activity (Pyrazinecarbonyl-PFL-Ex): 520 M⁻¹ s⁻¹
kobs/[I], trypsin-like activity (Pyrazinecarbonyl-PFL-Ex): 3.7 M⁻¹ s⁻¹
kassoc = kobs/[I], PGPH activity (compound 16): 21 (80-150 µM)
kassoc = kobs/[I], trypsin-like activity (compound 16): 7.1 (80-130 µM)
kobs/[I], chymotryptic-like activity (Suc-LLVY-AMC) (compound 16): 183000 M⁻¹ s⁻¹
kassoc = kobs/[I], PGPH activity (compound 18): 11 (10-150 µM)
kassoc = kobs/[I], chymotrypsin-like activity (compound 18): 5200 (0.11 µM)
kassoc = kobs/[I], trypsin-like activity (compound 18): 580 (0.5-5 µM)
kobs/[I], PGPH activity (dileucine α′,β′-epoxide): †
kobs/[I], chymotrypsin-like activity (dileucine α′,β′-epoxide): 3.1 (100-160 µM)
kobs/[I], trypsin-like activity (dileucine α′,β′-epoxide): †
kobs/[I], PGPH activity [3]: †
kobs/[I], chymotrypsin-like activity [3]: †
kobs/[I], trypsin-like activity [3]: †
kobs/[I], PGPH activity [4]: 9.2 (100-160 µM)
kobs/[I], chymotrypsin-like activity [4]: 14,000 (50-150 nm)
kobs/[I], trypsin-like activity [4]: †
kobs/[I], PGPH activity (Z-LLE-AMC) [5]: not measurable
kobs/[I], chymotryptic-like activity (Suc-LLVY-AMC) [5]: 29000 M⁻¹ s⁻¹
kobs/[I], tryptic-like activity (Boc-LRR-AMC) [5]: not measurable
kobs/[I], PGPH activity (Z-LLE-AMC) [6]: not measurable
kobs/[I], chymotryptic-like activity (Suc-LLVY-AMC) [6]: 31000 M⁻¹ s⁻¹
kobs/[I], tryptic-like activity (Boc-LRR-AMC) [6]: not measurable
kobs/[I], PGPH activity (Z-LLE-AMC) [7]: not measurable
kobs/[I], chymotryptic-like activity (Suc-LLVY-AMC) [7]: 29000 M⁻¹ s⁻¹
kobs/[I], tryptic-like activity (Boc-LRR-AMC) [7]: not measurable
kobs/[I], PGPH activity (Z-LLE-AMC) [8]: 50 M⁻¹ s⁻¹
kobs/[I], chymotryptic-like activity (Suc-LLVY-AMC) [8]: 63000 M⁻¹ s⁻¹
kobs/[I], tryptic-like activity (Boc-LRR-AMC) [8]: 5.4 M⁻¹ s⁻¹
kobs/[I], PGPH activity (Z-LLE-AMC) [9]: not measurable
kobs/[I], chymotryptic-like activity (Suc-LLVY-AMC) [9]: 23000 M⁻¹ s⁻¹
kobs/[I], tryptic-like activity (Boc-LRR-AMC) [9]: not measurable
kobs/[I], PGPH activity (Z-LLE-AMC) [10]: 78 M⁻¹ s⁻¹
kobs/[I], chymotryptic-like activity (Suc-LLVY-AMC) [10]: 37000 M⁻¹ s⁻¹
kobs/[I], tryptic-like activity (Boc-LRR-AMC) [10]: 5.5 M⁻¹ s⁻¹
kobs/[I], PGPH activity (trileucine α′,β′-epoxide): 120 (8-12 µM)
kobs/[I], chymotrypsin-like activity (trileucine α′,β′-epoxide): 780 (1-2.5 µM)
kobs/[I], trypsin-like activity (trileucine α′,β′-epoxide): 5.1 M⁻¹ s⁻¹
